Laboratory results reported in the supplement of paper PMC12042874.
± gives the uncertainty stated by the source.

Test: amyloid nucleation score (Sup35N fusion, yeast selection) (log enrichment); library NNK3; higher = more nucleation; inactive = no reads after selection
Procedure, shortened: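 After 24 hours of induction with 100 μM copper sulfate, psi-negative yeast expressing peptides of 20 random codons fused to Sup35N were grown for 7 days at 30°C on medium lacking adenine and uracil. Input and output plasmid inserts were sequenced with Illumina, and sequences with under 100 input reads were discarded. Scores for nucleation are the DiMSum log enrichment of output over input reads, centred on the mode score of non-aggregating sequences.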
With GVDDSLLKMRETCSRFGLTV the amyloid nucleation score was “inactive”. With GVGNPGWAVLM the amyloid nucleation score was “inactive”. In the case of GVHVVYCVRFSEGIVYTSGF, the amyloid nucleation score is reported as 0.906 ± 0.2. In the case of GVKYVDNIGLRGWFFCRHAV, the amyloid nucleation score is reported as “inactive”. For GVLLKVSR, the amyloid nucleation score was “inactive”. Work on GVLLTYSCSRQLSPDFNCFC yielded an amyloid nucleation score of 1.62 ± 0.073. For GVNIRCLRDDDSRLLKERSC, the amyloid nucleation score was “inactive”. For GVPIWCEKYKLILQKNWLFK, the amyloid nucleation score was “inactive”. With GVRLNVDRAVKVARELFH the amyloid nucleation score was “inactive”. For GVSEAMCVILFYFYWKWVFP, the amyloid nucleation score was “inactive”. For GVVSMVYINKWTRFWVPRPS, the amyloid nucleation score was “inactive”. For GVYHIQPCMRCRLHKGGSDS, the amyloid nucleation score was “inactive”. For GVYPSGCYLNVRFWSLVHGA, the amyloid nucleation score was “inactive”. In the case of GWFSYSRMSNCSLNSTK, the amyloid nucleation score is reported as “inactive”. With GWNVWQGMNKNFGTYFSR the amyloid nucleation score was “inactive”. In the case of GWSQYGACRVGVWGYRAPYN, the amyloid nucleation score is reported as “inactive”. With GWVYWVSMRVIPNRIVINDP the amyloid nucleation score was “inactive”. In the case of GYDLFCGILMVDNSASIHTP, the amyloid nucleation score is reported as 2.84 ± 0.063. For GYFSLPIGGVVRTGVMLDE, the amyloid nucleation score was “inactive”. With GYGCVTKV the amyloid nucleation score was “inactive”. For GYKFWCSVFLVWLILHVRQS, the amyloid nucleation score was “inactive”. With GYMWGLEDNFALWTGRNNYV the amyloid nucleation score was “inactive”. For GYNVKGNP, the amyloid nucleation score was “inactive”. With GYRYIVDLG the amyloid nucleation score was “inactive”. With GYRYTVHGIFEGVLWLTSAG the amyloid nucleation score was “inactive”. With GYSSTRNLAA the amyloid nucleation score was “inactive”. For HAFEYVFISVTYQFNVKVIV, the amyloid nucleation score was “inactive”. For HAGNWPSGSGRMSATRRFGW, the amyloid nucleation score was “inactive”. With HAGVHWFERGSFHWMLFINY the amyloid nucleation score was “inactive”. For HCCFVWERRNACGMVSSWMT, the amyloid nucleation score was “inactive”. With HCFLRMWKLLRTYLQVVLET the amyloid nucleation score was “inactive”. HCSQLFESTYKRMSHISRDL showed an amyloid nucleation score of -0.56 ± 0.73. For HCSWTSSAHEGPYAETGHWQ, the amyloid nucleation score was 0.557 ± 0.24. For HCYWLVGSWRYFTALFEGGL, the amyloid nucleation score was “inactive”. For HDIDGCIVRKSLYNGRGPLL, the amyloid nucleation score was “inactive”. HDMVREVDPILFMTLFRGGF gave an amyloid nucleation score of -0.517 ± 1.2. For HDYYLLLLTATL, the amyloid nucleation score was “inactive”. In the case of HECKYFGVCGRSQGNRSWVA, the amyloid nucleation score is reported as “inactive”. With HEIQGC the amyloid nucleation score was “inactive”. With HEVCS the amyloid nucleation score was “inactive”. In the case of HEYSSKILMM, the amyloid nucleation score is reported as “inactive”. In the case of HFHFLGCDSLGIVVGEWSDH, the amyloid nucleation score is reported as 0.94 ± 0.18. With HFLFVMSCPKWAVRFLAFVD the amyloid nucleation score was “inactive”. With HFLMFMRIIWVLRCPQVESP the amyloid nucleation score was “inactive”. For HFLRRTDFYTANWA, the amyloid nucleation score was “inactive”. In the case of HFRYY, the amyloid nucleation score is reported as “inactive”. In the case of HFSLSG, the amyloid nucleation score is reported as “inactive”. In the case of HGFEIDTRTDSRQAVNCMCC, the amyloid nucleation score is reported as “inactive”. In the case of HGHDNVEDTCLRFSPAGLST, the amyloid nucleation score is reported as “inactive”. For HGIDKGLDVDETR, the amyloid nucleation score was “inactive”. HGIGFDDVASG gave an amyloid nucleation score of -0.045 ± 0.88. In the case of HGLRALLRSLSLYLVLCFTV, the amyloid nucleation score is reported as “inactive”. In the case of HGNRVFYFELHSYPVLDSAM, the amyloid nucleation score is reported as 0.984 ± 0.17. For HGSAWHSISEVVTIIRACGF, the amyloid nucleation score was “inactive”. With HHIMIATLSG the amyloid nucleation score was 0.711 ± 0.12. For HHLNSYFRISFI, the amyloid nucleation score was “inactive”. In the case of HILVKITR, the amyloid nucleation score is reported as 0.359 ± 0.71. With HITGNGPHLRYCARQVLWSL the amyloid nucleation score was “inactive”. HIYIVKSVCILCIWPCGLTE gave an amyloid nucleation score of 2.86 ± 0.058. In the case of HKGALVWYFYCRANFADYLY, the amyloid nucleation score is reported as “inactive”. With HLLPLYTKSIVGYTTNAIPN the amyloid nucleation score was “inactive”. With HLRCFKMKFNSHFLVWGAGA the amyloid nucleation score was “inactive”. For HLRETCCRWDVLCVDSLLV, the amyloid nucleation score was “inactive”. In the case of HLRVMLLCFREYWDYAIMAL, the amyloid nucleation score is reported as “inactive”. With HLVYWVIHDLYMTI the amyloid nucleation score was 0.303 ± 0.33. With HMIGRCLVGIESYRW the amyloid nucleation score was “inactive”. For HMKPSMLYITVCRWFKFY, the amyloid nucleation score was “inactive”. In the case of HMLHVWYFLGRQYANTFCYM, the amyloid nucleation score is reported as “inactive”. In the case of HMRIGNESWVIGCQ, the amyloid nucleation score is reported as 0.132 ± 0.75. With HMSQLTLYCCAKIRKVVPLL the amyloid nucleation score was “inactive”. With HNSCGGY the amyloid nucleation score was “inactive”. With HPCPK the amyloid nucleation score was “inactive”. In the case of HPHTHVR, the amyloid nucleation score is reported as “inactive”. In the case of HPSQIKKVAFHYVRICSKWL, the amyloid nucleation score is reported as “inactive”. With HPTFHSHDRGR the amyloid nucleation score was “inactive”. With HPVKLILILIWPAFERSRCG the amyloid nucleation score was “inactive”. With HPVYMVSTRWRRGGSDWV the amyloid nucleation score was “inactive”. HQFFVVNSRDWLGHSSKFRF showed an amyloid nucleation score of 0.814 ± 0.12. With HQISVVCGTNMRNGCFRSLC the amyloid nucleation score was “inactive”.
